Experimental data from publication PMC8600288.

Molecular target: AlyA3, PL17 alginate lyase from Zobellia galactanivorans DsijT (recombinant, His-tagged, without signal peptide) (Zobellia galactanivorans DsijT)
Test: SEC

stoichiometry N: 2
Substance: AlyA3, PL17 alginate lyase from Zobellia galactanivorans DsijT (recombinant, His-tagged, without signal peptide) (enzyme)
